# According to PMC13379236 (Cell reports, 2026):
# Changes are numbered by the printed parent chain. In names and notes the source's numbering stands. Entries after “also recorded” stand apart in the source; their conditions may differ.
# B1: NLRP1 Gly/N-degron: C-terminal fragment generated by 3C cleavage, which exposes the Gly/N-degron, begins at glycine-131 (protein)
# chain: GSERRVLRQLPDTSGRRWREISASLLYQALPSSPDHESPSQESPNAPTSTAVLGSWGSPPQPSLAPREQEAPGTQWPLDETSGIYYTEIREREREKSEKGRPPWAAVVGTPPQAHTSLQPHHHPWEPSVRESLCSTWPWKNEDFNQKFTQLLLLQRPHPRSQDPLVKRSWPDYVEENRGHLIEIRDLFGPGLDTQEPRIVILQGAAGIGKSTLARQVKEAWGRGQLYGDRFQHVFYFSCRELAQSKVVSLAELIGKDGTATPAPIRQILSRPERLLFILDGVDEPGWVLQEPSSELCLHWSQPQPADALLGSLLGKTILPEASFLITARTTALQNLIPSLEQARWVEVLGFSESSRKEYFYRYFTDERQAIRAFRLVKSNKELWALCLVPWVSWLACTCLMQQMKRKEKLTLTSKTTTTLCLHYLAQALQAQPLGPQLRDLCSLAAEGIWQKKTLFSPDDLRKHGLDGAIISTFLKMGILQEHPIPLSYSFIHLCFQEFFAAMSYVLEDEKGRGKHSNCIIDLEKTLEAYGIHGLFGASTTRFLLGLLSDEGEREMENIFHCRLSQGRNLMQWVPSLQLLLQPHSLESLHCLYETRNKTFLTQVMAHFEEMGMCVETDMELLVCTFCIKFSRHVKKLQLIEGRQHRSTWSPTMVVLFRWVPVTDAYWQILFSVLKVTRNLKELDLSGNSLSHSAVKSLCKTLRRPRCLLETLRLAGCGLTAEDCKDLAFGLRANQTLTELDLSFNVLTDAGAKHLCQRLRQPSCKLQRLQLVSCGLTSDCCQDLASVLSASPSLKELDLQQNNLDDVGVRLLCEGLRHPACKLIRLGLDQTTLSDEMRQELRALEQEKPQLLIFSRRKPSVMTPTEGLDTGEMSNSTSSLKRQRLGSERAASHVAQANLKLLDVSKIFPIAEIAEESSPEVVPVELLCVPSPASQGDLHTKPLGTDDDFWGPTGPVATEVVDKEKNLYRVHFPVAGSYRWPNTGLCFVMREAVTVEIEFCVWDQFLGEINPQHSWMVAGPLLDIKAEPGAVEAVHLPHFVALQGGHVDTSLFQMAHFKEEGMLLEKPARVELHHIVLENPSFSPLGVLLKMIHNALRFIPVTSVVLLYHRVHPEEVTFHLYLIPSDCSIRKAIDDLEMKFQFVRIHKPPPLTPLYMGCRYTVSGSGSGMLEILPKELELCYRSPGEDQLFSEFYVGHLGSGIRLQVKDKKDETLVWEALVKPGDLMPATTLIPPARIAVPSPLDAPQLLHFVDQYREQLIARVTSVEVVLDKLHGQVLSQEQYERVLAENTRPSQMRKLFSLSQSWDRKCKDGLYQALKETHPHLIMELWEKGSKKGLLPLSS
# B2: E133K: E133K mutation of NLRP1 (residue E3 of the Gly/N-degron) (protein)
# chain: B1 chain with E3K
# Test system: ZYG11B
# Assay type: cell-based, human
molecule,measurement,value
B1,binding to ZYG11B Extended Surface I mutants,decreases the binding
same,binding to ZYG11B Gly-pocket mutants,abolishes the binding
same,binding to ZYG11B R466A (Extended Surface II),relatively strong reduction
B2,interaction of NLRP1 mutants with ZYG11B,decreases the interaction; also recorded: reduced binding to ZYG11B
